Source: US20090048161A1 (VALORISATION HSJ SOCIETE EN COMMANDITE, published 2009)
Where no end group is shown, it is not given here. [ ]: non-standard residue; d: D form.

Columns and labels:
Assay in all cases: cell-based or functional assay
[1] = target: T1, human Insulin-like growth factor 1 receptor (IGF-1R) (human, UniProt P08069 31-1367)
[2] = target: T1, human Insulin-like growth factor 1 …; remark: listed apart in the source
[3] = target: IL-1R (cells or tissue whose species or assay the filing does not state at that place)
[4] = target: T2, human Interleukin-1 receptor (IL-1R-alpha) (human, UniProt P14778 18-569)
T2 sequence: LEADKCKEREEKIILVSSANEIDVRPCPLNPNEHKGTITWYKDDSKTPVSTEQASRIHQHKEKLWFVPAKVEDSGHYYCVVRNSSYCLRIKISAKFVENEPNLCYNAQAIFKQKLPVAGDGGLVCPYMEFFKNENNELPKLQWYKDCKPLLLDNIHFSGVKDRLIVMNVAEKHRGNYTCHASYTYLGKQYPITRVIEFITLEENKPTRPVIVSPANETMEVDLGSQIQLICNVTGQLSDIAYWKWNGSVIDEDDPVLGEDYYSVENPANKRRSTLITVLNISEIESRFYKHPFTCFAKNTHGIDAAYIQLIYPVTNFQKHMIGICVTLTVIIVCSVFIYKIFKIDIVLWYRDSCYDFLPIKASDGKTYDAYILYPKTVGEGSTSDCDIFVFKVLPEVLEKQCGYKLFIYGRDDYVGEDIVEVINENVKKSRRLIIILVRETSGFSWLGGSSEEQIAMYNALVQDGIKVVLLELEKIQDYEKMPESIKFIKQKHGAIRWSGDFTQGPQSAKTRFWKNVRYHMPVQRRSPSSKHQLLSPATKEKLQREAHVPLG

T1 sequence (P08069 31-1367 limits assumed): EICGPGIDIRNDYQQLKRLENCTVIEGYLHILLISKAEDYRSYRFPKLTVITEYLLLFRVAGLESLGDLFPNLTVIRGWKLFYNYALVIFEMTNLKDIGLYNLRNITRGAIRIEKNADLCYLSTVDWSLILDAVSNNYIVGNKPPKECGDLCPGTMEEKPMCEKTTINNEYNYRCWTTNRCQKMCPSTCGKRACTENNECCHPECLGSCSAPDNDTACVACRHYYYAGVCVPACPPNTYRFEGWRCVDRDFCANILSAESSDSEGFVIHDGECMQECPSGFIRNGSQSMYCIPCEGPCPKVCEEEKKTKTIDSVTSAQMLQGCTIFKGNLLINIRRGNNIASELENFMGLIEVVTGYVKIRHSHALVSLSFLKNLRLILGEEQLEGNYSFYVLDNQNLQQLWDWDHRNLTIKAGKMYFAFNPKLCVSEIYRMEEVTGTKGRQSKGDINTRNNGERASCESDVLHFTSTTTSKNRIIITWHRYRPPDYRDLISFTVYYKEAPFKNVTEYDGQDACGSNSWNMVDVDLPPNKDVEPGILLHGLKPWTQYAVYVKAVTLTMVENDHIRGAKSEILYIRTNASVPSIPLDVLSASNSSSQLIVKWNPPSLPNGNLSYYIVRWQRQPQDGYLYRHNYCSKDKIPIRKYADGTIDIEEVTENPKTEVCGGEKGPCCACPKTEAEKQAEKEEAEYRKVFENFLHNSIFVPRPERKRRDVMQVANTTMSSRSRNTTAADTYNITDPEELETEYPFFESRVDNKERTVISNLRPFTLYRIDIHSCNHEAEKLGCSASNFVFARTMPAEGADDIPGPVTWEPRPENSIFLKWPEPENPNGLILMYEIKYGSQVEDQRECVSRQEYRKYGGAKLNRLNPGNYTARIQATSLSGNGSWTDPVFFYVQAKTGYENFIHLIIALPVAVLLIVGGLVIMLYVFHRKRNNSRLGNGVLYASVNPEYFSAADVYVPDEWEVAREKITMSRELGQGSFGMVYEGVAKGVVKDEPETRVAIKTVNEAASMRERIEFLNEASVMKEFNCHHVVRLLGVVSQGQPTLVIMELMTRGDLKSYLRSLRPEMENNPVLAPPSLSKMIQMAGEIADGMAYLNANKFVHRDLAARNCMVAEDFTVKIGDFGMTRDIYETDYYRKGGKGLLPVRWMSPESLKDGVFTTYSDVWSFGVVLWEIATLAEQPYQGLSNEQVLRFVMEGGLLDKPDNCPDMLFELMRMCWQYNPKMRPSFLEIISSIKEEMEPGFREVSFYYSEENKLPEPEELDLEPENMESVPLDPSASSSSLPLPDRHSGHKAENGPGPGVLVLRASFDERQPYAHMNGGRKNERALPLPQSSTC

B1: APG-201 (peptide)
peptide: [dS][dL][dF][dV][dP][dR][dP][dE][dR][dK]
EC50, IGF-1 (50 ng/ml)-induced proliferation, MCF-7 [1]: 35 nM
EC50, IGF-1 (50 ng/ml)-induced proliferation, MDA-MB-231 [1]: 0.1 nM
Emax, IGF-1 (50 ng/ml)-induced proliferation, MCF-7 [1]: 20%
Emax, IGF-1 (50 ng/ml)-induced proliferation, MDA-MB-231 [1]: 100%
EC50, IGF-1 induced proliferation, 3H-thymidine, A549 carcinoma cells [2]: 1000 nM

B2: APG-202 (peptide)
peptide: [dE][dS][dD][dV][dL][dH][dF][dT][dS][dT]
EC50, IGF-1 (50 ng/ml)-induced proliferation, MCF-7 [1]: 300 nM
Emax, IGF-1 (50 ng/ml)-induced proliferation, MCF-7 [1]: 20%
EC50, IGF-1 induced proliferation, 3H-thymidine, A549 carcinoma cells [2]: 10 nM

B3: API-101.107 (peptide)
peptide: [dR][dY][dT][dP][dE][dL][dA]
IC50 (assay not given) [3]: 0.0012 nM
IC50, PGE2 measurement, human WI-38 cells [4]: 100 nM
